Source: publication PMC9482650, “Quantitative fragmentomics allow affinity mapping of interactomes” (Nature Communications, 2022)
Substitutions are numbered along the chain they refer to.

T1: DLG3_1, Q92796
T1 sequence (Q92796 125-227, limits assumed, looked up): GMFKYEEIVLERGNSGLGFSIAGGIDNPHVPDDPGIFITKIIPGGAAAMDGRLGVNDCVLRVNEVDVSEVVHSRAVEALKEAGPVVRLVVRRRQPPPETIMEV

T2: DVL3, Q92997
T2 sequence (Q92997 244-331, limits assumed, looked up): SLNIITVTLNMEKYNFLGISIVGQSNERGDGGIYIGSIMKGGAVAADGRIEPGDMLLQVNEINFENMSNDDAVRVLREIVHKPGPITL

T3: SNTG1, Q9NSN8
T3 sequence (Q9NSN8 52-150, limits assumed, looked up): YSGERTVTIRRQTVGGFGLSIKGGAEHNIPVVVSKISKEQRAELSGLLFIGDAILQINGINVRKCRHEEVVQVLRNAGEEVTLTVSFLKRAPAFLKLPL

T4: LIN7A, O14910
T4 sequence (O14910 103-200, limits assumed, looked up): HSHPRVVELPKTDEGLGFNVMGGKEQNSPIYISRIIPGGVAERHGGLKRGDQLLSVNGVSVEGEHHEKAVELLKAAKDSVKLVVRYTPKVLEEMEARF

T5: PDZRN3_1, Q9UPQ7
T5 sequence (Q9UPQ7 244-349, limits assumed, looked up): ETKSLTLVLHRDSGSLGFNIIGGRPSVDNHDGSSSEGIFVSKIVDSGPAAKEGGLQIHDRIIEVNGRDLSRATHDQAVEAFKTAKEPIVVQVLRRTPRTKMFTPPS

T6: DLG3_2, Q92796
T6 sequence (Q92796 221-321, limits assumed, looked up): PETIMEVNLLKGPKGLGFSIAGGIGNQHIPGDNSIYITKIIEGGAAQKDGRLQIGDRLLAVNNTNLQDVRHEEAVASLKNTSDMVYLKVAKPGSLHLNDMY

T7: LIN7B, Q9HAP6
T7 sequence (Q9HAP6 88-185, limits assumed, looked up): T4 sequence (O14910 103-200, limits assumed, looked up) with S2A, V20I, I35V, E42D, H65Q, K77Q, D78G, K89R

T8: MPP6, Q9NZW5
T8 sequence (Q9NZW5 125-219, limits assumed, looked up): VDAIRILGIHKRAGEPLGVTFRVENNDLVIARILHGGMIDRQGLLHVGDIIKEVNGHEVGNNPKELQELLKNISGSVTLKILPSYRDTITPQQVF

T9: APBA2_1, Q99767
T9 sequence (Q99767 563-664, limits assumed, looked up): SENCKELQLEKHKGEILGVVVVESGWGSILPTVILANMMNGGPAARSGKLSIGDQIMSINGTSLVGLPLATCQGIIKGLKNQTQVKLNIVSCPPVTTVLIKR

T10: FRMPD1, Q5SYB0
T10 sequence (Q5SYB0 52-145, limits assumed, looked up): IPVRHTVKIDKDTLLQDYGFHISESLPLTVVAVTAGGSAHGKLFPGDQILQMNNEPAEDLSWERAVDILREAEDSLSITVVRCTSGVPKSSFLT

T11: PCLO, Q9Y6V0
T11 sequence (Q9Y6V0 4491-4600, limits assumed, looked up): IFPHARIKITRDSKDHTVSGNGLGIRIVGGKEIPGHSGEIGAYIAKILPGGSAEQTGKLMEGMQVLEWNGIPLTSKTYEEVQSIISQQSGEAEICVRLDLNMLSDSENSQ

T12: GRIP1_2, Q9Y3R0
T12 sequence (Q9Y3R0 145-248, limits assumed, looked up): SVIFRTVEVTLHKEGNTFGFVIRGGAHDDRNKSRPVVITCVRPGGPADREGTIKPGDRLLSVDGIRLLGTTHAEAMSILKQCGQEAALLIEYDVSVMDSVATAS


Biological target: GRID2IP_1, A4D2P6
Sequence (A4D2P6 1-87): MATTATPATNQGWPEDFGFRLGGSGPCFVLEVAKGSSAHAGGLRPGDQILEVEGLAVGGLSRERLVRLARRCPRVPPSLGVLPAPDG
Test: holdup assay
Parameters: key: below the threshold = too weak to quantify, mostly under pKd 3.1 to 4
Conditions: plain residues with an end cap or a label only (N-terminal biotin on a linker: ado-ado)

Row | pKd | Binder
1 | below the threshold | APIAGFSSFV [SDK2, Q58EX2]

Biological target: SCRIB_3, Q14160
Sequence (Q14160 999-1103): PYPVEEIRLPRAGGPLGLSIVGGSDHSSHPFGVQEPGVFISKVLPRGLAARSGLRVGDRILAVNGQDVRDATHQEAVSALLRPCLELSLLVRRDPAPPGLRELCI
Test: holdup assay
Parameters: key: below the threshold = too weak to quantify, mostly under pKd 3.1 to 4
Conditions: plain residues with an end cap or a label only (N-terminal biotin on a linker: ado-ado)

Row | pKd | Binder
2 | 4.06 | APIAGFSSFV [SDK2, Q58EX2]

Biological target: HTRA2, O43464
Sequence (O43464 355-458): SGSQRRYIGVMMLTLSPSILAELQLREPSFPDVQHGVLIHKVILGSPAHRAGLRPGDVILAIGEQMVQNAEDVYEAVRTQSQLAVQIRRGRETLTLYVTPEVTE
Test: holdup assay
Parameters: key: below the threshold = too weak to quantify, mostly under pKd 3.1 to 4
Conditions: plain residues with an end cap or a label only (N-terminal biotin on a linker: ado-ado)

Row | pKd | Binder
3 | 4.07 | APIAGFSSFV [SDK2, Q58EX2]

Biological target: T1, DLG3_1, Q92796
Test: holdup assay
Parameters: key: below the threshold = too weak to quantify, mostly under pKd 3.1 to 4
Conditions: plain residues with an end cap or a label only (N-terminal biotin on a linker: ado-ado)

Row | pKd | Binder
4 | 3.88 | APIAGFSSFV [SDK2, Q58EX2]

Biological target: NHERF4_1, Q86UT5-2
Sequence (Q86UT5 other isoform, or with tags, fused parts or gaps): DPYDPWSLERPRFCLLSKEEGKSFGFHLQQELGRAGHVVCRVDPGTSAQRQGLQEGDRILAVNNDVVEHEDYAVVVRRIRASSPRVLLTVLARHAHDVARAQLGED
Test: holdup assay
Parameters: key: below the threshold = too weak to quantify, mostly under pKd 3.1 to 4
Conditions: plain residues with an end cap or a label only (N-terminal biotin on a linker: ado-ado)

Row | pKd | Binder
5 | 3.59 | APIAGFSSFV [SDK2, Q58EX2]

Biological target: T2, DVL3, Q92997
Test: holdup assay
Parameters: key: below the threshold = too weak to quantify, mostly under pKd 3.1 to 4
Conditions: plain residues with an end cap or a label only (N-terminal biotin on a linker: ado-ado)

Row | pKd | Binder
6 | 3.88 | APIAGFSSFV [SDK2, Q58EX2]

Biological target: T3, SNTG1, Q9NSN8
Test: holdup assay
Parameters: key: below the threshold = too weak to quantify, mostly under pKd 3.1 to 4
Conditions: plain residues with an end cap or a label only (N-terminal biotin on a linker: ado-ado)

Row | pKd | Binder
7 | 3.83 | APIAGFSSFV [SDK2, Q58EX2]

Biological target: T4, LIN7A, O14910
Test: holdup assay
Parameters: key: below the threshold = too weak to quantify, mostly under pKd 3.1 to 4
Conditions: plain residues with an end cap or a label only (N-terminal biotin on a linker: ado-ado)

Row | pKd | Binder
8 | below the threshold | APIAGFSSFV [SDK2, Q58EX2]

Biological target: FRMPD2_2, Q68DX3
Sequence (Q68DX3 944-1038): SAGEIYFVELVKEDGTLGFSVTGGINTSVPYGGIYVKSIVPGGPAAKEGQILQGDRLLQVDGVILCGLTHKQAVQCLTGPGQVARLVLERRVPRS
Test: holdup assay
Parameters: key: below the threshold = too weak to quantify, mostly under pKd 3.1 to 4
Conditions: plain residues with an end cap or a label only (N-terminal biotin on a linker: ado-ado)

Row | pKd | Binder
9 | 4.36 | APIAGFSSFV [SDK2, Q58EX2]

Biological target: Inadl_8, Q8NI35
Sequence (Q8NI35 1425-1530): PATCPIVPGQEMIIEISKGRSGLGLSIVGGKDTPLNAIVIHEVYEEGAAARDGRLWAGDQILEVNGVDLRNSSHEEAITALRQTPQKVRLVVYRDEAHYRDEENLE
Test: holdup assay
Parameters: key: below the threshold = too weak to quantify, mostly under pKd 3.1 to 4
Conditions: plain residues with an end cap or a label only (N-terminal biotin on a linker: ado-ado)

Row | pKd | Binder
10 | 4.34 | APIAGFSSFV [SDK2, Q58EX2]

Biological target: T5, PDZRN3_1, Q9UPQ7
Test: holdup assay
Parameters: key: below the threshold = too weak to quantify, mostly under pKd 3.1 to 4
Conditions: plain residues with an end cap or a label only (N-terminal biotin on a linker: ado-ado)

Row | pKd | Binder
11 | 3.78 | APIAGFSSFV [SDK2, Q58EX2]

Biological target: T6, DLG3_2, Q92796
Test: holdup assay
Parameters: key: below the threshold = too weak to quantify, mostly under pKd 3.1 to 4
Conditions: plain residues with an end cap or a label only (N-terminal biotin on a linker: ado-ado)

Row | pKd | Binder
12 | 4.07 | APIAGFSSFV [SDK2, Q58EX2]

Biological target: LAP2, Q96RT1
Sequence (Q96RT1 other isoform, or with tags, fused parts or gaps): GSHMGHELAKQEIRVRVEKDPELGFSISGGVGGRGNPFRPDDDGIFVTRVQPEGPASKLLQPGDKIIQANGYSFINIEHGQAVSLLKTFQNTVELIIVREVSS
Test: holdup assay
Parameters: key: below the threshold = too weak to quantify, mostly under pKd 3.1 to 4
Conditions: plain residues with an end cap or a label only (N-terminal biotin on a linker: ado-ado)

Row | pKd | Binder
13 | 4.17 | APIAGFSSFV [SDK2, Q58EX2]

Biological target: GORASP2, Q9H8Y8
Test: holdup assay
Parameters: key: below the threshold = too weak to quantify, mostly under pKd 3.1 to 4
Conditions: plain residues with an end cap or a label only (N-terminal biotin on a linker: ado-ado)

Row | pKd | Binder
14 | 4.03 | APIAGFSSFV [SDK2, Q58EX2]

Biological target: PDLIM1, O00151
Sequence (O00151 1-87): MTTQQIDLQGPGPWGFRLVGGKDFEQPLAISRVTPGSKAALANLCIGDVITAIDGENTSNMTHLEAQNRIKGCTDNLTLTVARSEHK
Test: holdup assay
Parameters: key: below the threshold = too weak to quantify, mostly under pKd 3.1 to 4
Conditions: plain residues with an end cap or a label only (N-terminal biotin on a linker: ado-ado)

Row | pKd | Binder
15 | below the threshold | APIAGFSSFV [SDK2, Q58EX2]

Biological target: T7, LIN7B, Q9HAP6
Test: holdup assay
Parameters: key: below the threshold = too weak to quantify, mostly under pKd 3.1 to 4
Conditions: plain residues with an end cap or a label only (N-terminal biotin on a linker: ado-ado)

Row | pKd | Binder
16 | below the threshold | APIAGFSSFV [SDK2, Q58EX2]

Biological target: T8, MPP6, Q9NZW5
Test: holdup assay
Parameters: key: below the threshold = too weak to quantify, mostly under pKd 3.1 to 4
Conditions: plain residues with an end cap or a label only (N-terminal biotin on a linker: ado-ado)

Row | pKd | Binder
17 | below the threshold | APIAGFSSFV [SDK2, Q58EX2]

Biological target: TJP1_3, Q07157
Sequence (Q07157 416-512): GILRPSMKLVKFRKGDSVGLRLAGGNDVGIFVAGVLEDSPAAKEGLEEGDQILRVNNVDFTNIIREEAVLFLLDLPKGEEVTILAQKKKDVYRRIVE
Test: holdup assay
Parameters: key: below the threshold = too weak to quantify, mostly under pKd 3.1 to 4
Conditions: plain residues with an end cap or a label only (N-terminal biotin on a linker: ado-ado)

Row | pKd | Binder
18 | below the threshold | APIAGFSSFV [SDK2, Q58EX2]

Biological target: IL16_4, Q14005
Sequence (Q14005 1229-1329): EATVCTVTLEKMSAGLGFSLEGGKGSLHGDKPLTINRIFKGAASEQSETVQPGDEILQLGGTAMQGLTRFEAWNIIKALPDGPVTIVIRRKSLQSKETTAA
Test: holdup assay
Parameters: key: below the threshold = too weak to quantify, mostly under pKd 3.1 to 4
Conditions: plain residues with an end cap or a label only (N-terminal biotin on a linker: ado-ado)

Row | pKd | Binder
19 | below the threshold | APIAGFSSFV [SDK2, Q58EX2]

Biological target: HTRA1, Q92743
Sequence (Q92743 360-477): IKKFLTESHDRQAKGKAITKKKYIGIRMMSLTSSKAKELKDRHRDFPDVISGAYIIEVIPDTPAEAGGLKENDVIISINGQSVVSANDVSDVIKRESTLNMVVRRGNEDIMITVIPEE
Test: holdup assay
Parameters: key: below the threshold = too weak to quantify, mostly under pKd 3.1 to 4
Conditions: plain residues with an end cap or a label only (N-terminal biotin on a linker: ado-ado)

Row | pKd | Binder
20 | 4.51 | APIAGFSSFV [SDK2, Q58EX2]

Biological target: ARHGEF12, Q9NZN5-2
Sequence (Q9NZN5 other isoform, or with tags, fused parts or gaps): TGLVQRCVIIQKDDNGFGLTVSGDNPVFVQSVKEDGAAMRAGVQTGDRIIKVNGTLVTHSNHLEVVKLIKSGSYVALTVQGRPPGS
Test: holdup assay
Parameters: key: below the threshold = too weak to quantify, mostly under pKd 3.1 to 4
Conditions: plain residues with an end cap or a label only (N-terminal biotin on a linker: ado-ado)

Row | pKd | Binder
21 | 4.14 | APIAGFSSFV [SDK2, Q58EX2]

Biological target: T9, APBA2_1, Q99767
Test: holdup assay
Parameters: key: below the threshold = too weak to quantify, mostly under pKd 3.1 to 4
Conditions: plain residues with an end cap or a label only (N-terminal biotin on a linker: ado-ado)

Row | pKd | Binder
22 | below the threshold | APIAGFSSFV [SDK2, Q58EX2]

Biological target: T10, FRMPD1, Q5SYB0
Test: holdup assay
Parameters: key: below the threshold = too weak to quantify, mostly under pKd 3.1 to 4
Conditions: plain residues with an end cap or a label only (N-terminal biotin on a linker: ado-ado)

Row | pKd | Binder
23 | below the threshold | APIAGFSSFV [SDK2, Q58EX2]

Biological target: LNX1_3, Q8TBB1
Sequence (Q8TBB1 500-596): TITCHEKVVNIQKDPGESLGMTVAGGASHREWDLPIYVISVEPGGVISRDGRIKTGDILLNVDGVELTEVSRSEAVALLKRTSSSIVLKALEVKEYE
Test: holdup assay
Parameters: key: below the threshold = too weak to quantify, mostly under pKd 3.1 to 4
Conditions: plain residues with an end cap or a label only (N-terminal biotin on a linker: ado-ado)

Row | pKd | Binder
24 | below the threshold | APIAGFSSFV [SDK2, Q58EX2]

Biological target: T11, PCLO, Q9Y6V0
Test: holdup assay
Parameters: key: below the threshold = too weak to quantify, mostly under pKd 3.1 to 4
Conditions: plain residues with an end cap or a label only (N-terminal biotin on a linker: ado-ado)

Row | pKd | Binder
25 | below the threshold | APIAGFSSFV [SDK2, Q58EX2]

Biological target: T12, GRIP1_2, Q9Y3R0
Test: holdup assay
Parameters: key: below the threshold = too weak to quantify, mostly under pKd 3.1 to 4
Conditions: plain residues with an end cap or a label only (N-terminal biotin on a linker: ado-ado)

Row | pKd | Binder
26 | below the threshold | APIAGFSSFV [SDK2, Q58EX2]
